Reference: patent US20170306018A1 (Bristol-Myers Squibb, published 2017)
“And” between values parts separate entries of the source, which are not always exact repeats. Equal values may be shown once.

How the values were obtained:
human ROR1 [1] = biological target: T1, human ROR1 (human, UniProt Q01973 30-937); assay: cell-based or functional assay
human CD3ε = biological target: T2, human CD3ε (human, UniProt P07766 23-207); assay: flow cytometry on Jurkat T cells
T2 construct: whole, on cells; CD3 on human leukemic Jurkat T cells, as part of the TCR/CD3 complex; also called CD3 epsilon
Experimental: Anti-ROR1/anti-CD3 T cell bispecific antibodies generated in Example 5 were analyzed by flow cytometry for their binding to human ovarian cancer cell lines PA-1 and SK-OV-3 and human CD3 expressed on human leukemic T cells Jurkat (ATCC TIB-152). Jurkat T cells were cultured in RPMI1640 medium supplemented with 10% fetal calf serum. Briefly, cultured cells were harvested, counted and cell viability is evaluated using ViCell. Viable cells were then adjusted to 2×10⁶ cells per ml in FACS Stain Buffer (BD Biosciences) containing 0.1% BSA. 100 μl of this cell suspension were further aliquoted per well into a round-bottom 96-well plate. […] After incubation for 30 min at 4° C., cells are centrifuged (5 min, 350×g), washed twice with 150 μl/well BSA-containing FACS Stain Buffer (BD Biosciences), then cells are fixed using 100 ul BD Fixation buffer per well (#BD Biosciences, 554655) at 4° C. for 20 min, resuspended in 120 μl FACS buffer and analyzed using BD FACS CantoII. Binding of the anti-ROR1/anti-CD3 T cell bispecific antibodies to human ovarian cancer cells and T cells were evaluated and the median fluorescence intensity was determined gated on either human ovarian cancer cells or CD3-expressing Jurkat T cells and plotted in histograms and dot plots. […] Median fluorescence intensity for anti-ROR1/anti-CD3 T cell bispecific antibodies in function of antibody concentrations were plotted.

human ROR1 [2] = biological target: T1, human ROR1; assay: flow cytometry on RPMI8226 cells
Experimental: a) ROR1 expression was assessed on primary CD19⁺ CD5⁺ CLL cells by flow cytometry. Briefly, cells were harvested, washed, counted for viability, resuspended at 50 000 cells/well of a 96-well round bottom plate and incubated with Alexa488-labeled anti human ROR1 antibody at 10 μg/ml for 30 min at 4° C. (to prevent internalization). At the end of incubation time, cells were centrifuged (5 min at 350×g), washed twice with FACS buffer, resuspended in 100 ul FACS buffer and analyzed on a CantoII device running FACS Diva software.
b) ROR1 expression was then assessed on B lymphocyte myeloma RPMI8226 cell lines by flow cytometry, using the methods described above.

human ROR1 [3] = biological target: T1, human ROR1; assay: flow cytometry on SK-OV-3 cells (extrapolated value)
Experimental: (§1) a) The level of expression of ROR1 was measured on human ovarian cancer cell lines by flow cytometry including PA-1, COLO-704, ES-2, SK-OV-3, and OVCAR-5. Briefly, cells were harvested, washed, counted for viability, resuspended at 50,000 cells/well of a 96-well round bottom plate and incubated with Alexa488-labeled anti human ROR1 antibody for 30 min at 4° C. All ROR1 and isotype control antibodies were titrated and analyzed in final concentration range between 0.01-100 nM (0.0015-15 μg/mL). […] At the end of incubation time, cells were centrifuged (5 min at 350×g), washed twice with FACS buffer, resuspended in 100 ul FACS buffer and analyzed on a CantoII device running FACS Diva software. Expression of ROR1 was then quantified as the median fluorescence intensity (MFI) and graphs showing the MFI in function of ROR1 antibody concentrations were plotted. EC50 values were then measured using Prism software (GraphPad). […] The calculated EC50s for binding of ROR1 Mab1 and ROR1 Mab2 to SK-OV-3 are extrapolated values and may be over- or underestimated. […]

human ROR1 [4] = biological target: T1, human ROR1; assay: flow cytometry on PA-1 cells
Experimental: as §1

T1 sequence (Q01973 30-937 limits assumed): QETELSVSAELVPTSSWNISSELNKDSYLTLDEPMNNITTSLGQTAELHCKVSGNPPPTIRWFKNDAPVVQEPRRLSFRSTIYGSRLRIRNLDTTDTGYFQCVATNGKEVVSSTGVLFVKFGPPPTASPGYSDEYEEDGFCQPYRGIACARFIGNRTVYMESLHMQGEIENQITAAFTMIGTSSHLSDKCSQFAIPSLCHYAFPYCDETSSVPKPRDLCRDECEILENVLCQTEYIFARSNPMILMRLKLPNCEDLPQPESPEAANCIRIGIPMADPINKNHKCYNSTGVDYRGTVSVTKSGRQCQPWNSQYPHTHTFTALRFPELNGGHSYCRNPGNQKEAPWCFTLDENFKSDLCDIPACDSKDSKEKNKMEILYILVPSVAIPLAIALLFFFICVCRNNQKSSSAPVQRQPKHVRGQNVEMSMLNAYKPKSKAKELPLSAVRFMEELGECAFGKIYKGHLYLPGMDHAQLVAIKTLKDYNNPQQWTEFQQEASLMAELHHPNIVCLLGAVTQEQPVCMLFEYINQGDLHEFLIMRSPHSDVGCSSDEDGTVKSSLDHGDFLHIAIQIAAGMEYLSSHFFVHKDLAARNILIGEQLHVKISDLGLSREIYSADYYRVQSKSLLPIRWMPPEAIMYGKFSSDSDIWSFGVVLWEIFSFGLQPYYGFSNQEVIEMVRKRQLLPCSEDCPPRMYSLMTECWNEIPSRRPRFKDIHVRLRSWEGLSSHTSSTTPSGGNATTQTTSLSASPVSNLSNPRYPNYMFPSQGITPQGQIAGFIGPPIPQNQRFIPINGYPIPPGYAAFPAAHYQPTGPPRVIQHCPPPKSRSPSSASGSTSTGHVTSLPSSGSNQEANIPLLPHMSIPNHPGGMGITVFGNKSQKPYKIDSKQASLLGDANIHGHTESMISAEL
T2 sequence (P07766 23-207): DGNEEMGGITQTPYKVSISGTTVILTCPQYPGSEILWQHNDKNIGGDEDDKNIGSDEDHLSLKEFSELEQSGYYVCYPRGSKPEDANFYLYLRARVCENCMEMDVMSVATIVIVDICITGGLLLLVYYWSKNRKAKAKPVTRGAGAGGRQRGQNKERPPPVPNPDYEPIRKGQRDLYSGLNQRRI

Row | Binder | Mean EC50 (ng/mL), cell lysis of COLO-704 (n = 1), LDH release (human ROR1 [1]) [ng/mL] | Mean EC50 (ng/mL), cell lysis of OVCAR-5 (n = 1), LDH release (human ROR1 [1]) [ng/mL] | Mean EC50 (ng/mL), cell lysis of PA-1 (n = 2), LDH release (human ROR1 [1]) [ng/mL] | Mean EC50 (ng/mL), cell lysis of SKOV-3 (n = 5), LDH release (human ROR1 [1]) [ng/mL] | Mean EC50 (pM), cell lysis of COLO-704 (n = 1), LDH release (human ROR1 [1]) [pM] | Mean EC50 (pM), cell lysis of OVCAR-5 (n = 1), LDH release (human ROR1 [1]) [pM] | Mean EC50 (pM), cell lysis of PA-1 (n = 2), LDH release, PBMC E:T 10:1 (human ROR1 [1]) [pM] | Mean EC50 (pM), cell lysis of SKOV-3 (n = 5), LDH release (human ROR1 [1]) [pM] | binding result (human CD3ε) | EC50 (human ROR1 [2]) | EC50 (human ROR1 [3]) | EC50 (human ROR1 [4])
1 | ROR1 Mab2-TCBcv (bispecific antibody, 2+1 TCB with charge variants, bivalent for ROR1 (Mab2) and monovalent for CD3; The chain set is printed under the name Mab2 ROR1-TCB (2+1); also called Mab2 ROR1-TCBcv; Mab2 ROR1-TCB (2+1)) heavy 1: not shown heavy 2: EVKLVESGGGLVKPGGSLKLSCAASGFTFSSYAMSWVRQIPEKRLEWVASISRGGTTYYPDSVKGRFTISRDNVRNILYLQMSSLRSEDTAMYYCGRYDYDGYYAMDYWGQGTSVTVSSASTKGPSVFPLAPSSKSTSGGTAALGCLVEDYFPEPVTVSWNSGALTSGVHTFPAVLQSSGLYSLSSVVTVPSSSLGTQTYICNVNHKPSNTKVDEKVEPKSCDKTHTCPPCPAPEAAGGPSVFLFPPKPKDTLMISRTPEVTCVVVDVSHEDPEVKFNWYVDGVEVHNAKTKPREEQYNSTYRVVSVLTVLHQDWLNGKEYKCKVSNKALGAPIEKTISKAKGQPREPQVCTLPPSRDELTKNQVSLSCAVKGFYPSDIAVEWESNGQPENNYKTTPPVLDSDGSFFLVSKLTVDKSRWQQGNVFSCSVMHEALHNHYTQKSLSLSPGK light 1: DIKMTQSPSSMYASLGERVTITCKASPDINSYLSWFQQKPGKSPKTLIYRANRLVDGVPSRFSGGGSGQDYSLTINSLEYEDMGIYYCLQYDEFPYTFGGGTKLEMKRTVAAPSVFIFPPSDRKLKSGTASVVCLLNNFYPREAKVQWKVDNALQSGNSQESVTEQDSKDSTYSLSSTLTLSKADYEKHKVYACEVTHQGLSSPVTKSFNRGEC light 2: EVQLLESGGGLVQPGGSLRLSCAASGFTFSTYAMNWVRQAPGKGLEWVSRIRSKYNNYATYYADSVKGRFTISRDDSKNTLYLQMNSLRAEDTAVYYCVRHGNFGNSYVSWFAYWGQGTLVTVSSASVAAPSVFIFPPSDEQLKSGTASVVCLLNNFYPREAKVQWKVDNALQSGNSQESVTEQDSKDSTYSLSSTLTLSKADYEKHKVYACEVTHQGLSSPVTKSFNRGEC | 14.3 | 10.7 | 2.9 | 141 | 73.3 | 53.4 | 14.6 | 707 | binds |  |  | 
2 | anti-ROR1 IgG1 antibody (ROR1 Mab1) (antibody, V domains shown, Used Alexa488-labelled in some assays; also called anti-ROR1 antibody; anti-ROR1 IgG antibody) VH: QEQLVESGGRLVTPGGSLTLSCKASGFDFSAYYMSWVRQAPGKGLEWIATIYPSSGKTYYATWVNGRFTISSDNAQNTVDLQMNSLTAADRATYFCARDSYADDGALFNIWGPGTLVTISS VL: ELVLTQSPSVSAALGSPAKITCTLSSAHKTDTIDWYQQLQGEAPRYLMQVQSDGSYTKRPGVPDRFSGSSSGADRYLIIPSVQADDEADYYCGADYIGGYVFGGGTQLTVTG |  |  |  |  |  |  |  |  | no binding (tested: 3 nM to 500 nM) | 0.087 nM and 0.013 µg/mL | ~4.62 nM and ~0.69 µg/mL | 0.87 nM and 0.13 µg/mL
3 | ROR1 Mab2 IgG (antibody, V domains shown, Tested as IgG; also called Mab 4A5) VH: EVKLVESGGGLVKPGGSLKLSCAASGFTFSSYAMSWVRQIPEKRLEWVASISRGGTTYYPDSVKGRFTISRDNVRNILYLQMSSLRSEDTAMYYCGRYDYDGYYAMDYWGQGTSVTVSS VL: DIKMTQSPSSMYASLGERVTITCKASPDINSYLSWFQQKPGKSPKTLIYRANRLVDGVPSRFSGGGSGQDYSLTINSLEYEDMGIYYCLQYDEFPYTFGGGTKLEMK |  |  |  |  |  |  |  |  |  |  | ~358 nM and ~53.4 µg/mL | 0.095 µg/mL and 0.64 nM
